Source: US20260060994A1, “GLYCOSYLATED COMPOSITIONS AND METHODS OF USE” (Cy Biopharma AG, priority 2023, published 2026)

Columns and labels:
Type in all cases: biochemical
[1] = Glycosylation of 4-OH-EPT by GLY enzymes (UDP-glucose), LC-UV/MS; conditions: conditions of Examples 1 and 2 repeated for 4-OH-EPT; estimate from UV peak areas
Experimental: (§1) The assay conditions were: • 100 mM Tris-HCl, pH 7.4 • 5 mM MgCl2 • 1 mM KCl • 1.25 mM UDP-glucose • 0.5 mM 4-OH-MET • 5% (v/v) DMSO • 0.1 U/uL Fast AP phosphatase • 25% (v/v) GLY enzyme
(§2) Incubation was 24 house at 30° C. Reactions were terminated adding 3 volumes of 75% (v/v) ethanol.
(§3) LC separation was performed using an Agligen 1290 Infinity II UHPLC equipped with a Phenomenex Kinetex XB-C18 column (1.7 um, 100 angstroms, 100×2.1 mm) and 4-HO-MET was detected by absorbance at 210 nm and 268 nm with an Agilent 1260 Infinity II DAD.
(§4) 0.1% Formic acid in water (A) and 0.1% Formic acid in acetonitrile (B) were used as the mobile phases for the elution gradient, with a flow rate of 0.4 ml/min. Retention time for 4-HO-MET using this type of instrument under these condition was 2.6 min. The system was coupled to an Ultivo Triple Quadrupole MS. To verify the presence of possible glycoside products, as SIM (Selected Ion Monitoring) method was used on the MS to analyse for the m/z 381 (theoretical mass to chart ratio of 4-HO-MET-glucoside) and m/z 219 (theoretical mass to charge ratio of 4-HO-MET).
(§5) The enzymes giving the additional peak putatively corresponding to the 4-HO-MET-β-D-glucoside are listed below. […] A correct quantification of the product is not possible without a standard for the specific molecule. However, based on the assumption that the ratio area-to-concentration in the UV chromatograms will be similar to 4-HO-MET, estimates of the relative abundance for the additional peak are also given, expressed as percentage of converted 4-HO-MET. GLY enzymes hits are ranked according to their estimated conversion efficiency.
The experiments described in Examples 1 and 2 above were repeated for 4-OH-EPT.
Below is the corresponding data for 4-OH-EPT.

[2] = Glycosylation of 4-HO-MET by GLY enzymes (UDP-glucose), LC-UV/MS; conditions: 0.5 mM 4-OH-MET, 1.25 mM UDP-glucose, 25% (v/v) GLY enzyme, 24 h at 30° C.; estimate from UV peak areas
Experimental: 4-HO-MET was dissolved in 100% (v/v) DMSO to a concentration of 10 mM. The solution was stored at −20° C. prior to use.
FastAP phosphatase (1 U/uL) from ThermoFisher Scientific (catalog no. EF0651).
GLY enzyme suspensions contain 10 mM Tris-HCl at pH7.4, 250 mM imidazole and 50% (v/v) glycerol.
as §1, §2, §3, §4
As standard, 4-HO-MET solutions at a concentrations of 500, 250, 125, 62.5, and 31.25 uM were prepared from the 10 mM stock and used for caliboration.
A representative example of the chromatograms obtained with a wavelength of 268 nm for the standard solutions resuspended in the reaction buffer, and the corresponding MS-SIM signal, is shown in FIG. 16. The peak corresponding to 4-HO-MET is indicated.
When analyzing the GLY reactions, 30 of them gave an additional peak with retention time 2.2 min (i.e. in the expected region for a 4-HO-MET glucoside) and molecular mass compatible with the expected glucoside product, together with a corresponding decrease in substrate concentration, compared to the no-enzyme controls.
The method was repeated using various GLY enzymes to produce 4-HO-MET glucosides.
as §5

[3] = Glycosylation of 4-OH-DMT by GLY enzymes (UDP-glucose), LC-UV/MS; conditions: conditions of Examples 1 and 2 repeated for 4-HO-DMT; estimate from UV peak areas
Experimental: as §1, §2, §3, §4, §5
(§6) The experiments described in Examples 1 and 2 above were repeated for 4-OH-MiPT, 4-HO-DMT and 5-HO-DMT
(§7) Below is the corresponding data for 4-OH-DMT and 5-HO-DMT.

[4] = Glycosylation of 4-OH-MiPT by GLY enzymes (UDP-glucose), LC-UV/MS; conditions: conditions of Examples 1 and 2 repeated for 4-OH-MiPT; estimate from UV peak areas
Experimental: as §1, §2, §3, §4, §5, §6
Below is the corresponding data for 4-OH-MiPT.

[5] = Glycosylation of 5-HO-DMT by GLY enzymes (UDP-glucose), LC-UV/MS; conditions: conditions of Examples 1 and 2 repeated for 5-HO-DMT
Experimental: as §1, §2, §3, §4, §5, §6, §7

Molecule	4-OH-EPT GLY % (percentage of converted 4-OH-EPT) [1] [%]	4-OH-MET GLY % (percentage of converted 4-HO-MET) [2] [%]	4-OH-DMT GLY % [3] [%]	4-OH-MiPT GLY % (percentage of converted 4-OH-MiPT) [4] [%]	5-OH-DMT GLY % [5] [%]
GLY70: glycosyltransferase (UGT), SEQ ID NO: 2 (protein) MAKQQEAELIFIPFPIPGHILATIELAKRLISHQPSRIHTITILHWSLPFLPQSDTIAFLKSLIETESRIRLITLPDVQNPPPMELFVKASESYILEYVKKMVPLVRNALSTLLSSRDESDSVHVAGLVLDFFCVPLIDVGNEFNLPSYIFLTCSASFLGMMKYLLERNRETKPELNRSSDEETISVPGFVNSVPVKVLPPGLFTTESYEAWVEMAERFPEAKGILVNSFESLERNAFDYFDRRPDNYPPVYPIGPILCSNDRPNLDLSERDRILKWLDDQPESSVVFLCFGSLKSLAASQIKEIAQALELVGIRFLWSIRTDPKEYASPNEILPDGFMNRVMGLGLVCGWAPQVEILAHKAIGGFVSHCGWNSILESLRFGVPIATWPMYAEQQLNAFTIVKELGLALEMRLDYVSEYGEIVKADEIAGAVRSLMDGEDVPRRKLKEIAEAGKEAVMDGGSSFVAVKRFIDGL	80.5	98.6	89.3	58.4	6
GLY87: glycosyltransferase (UGT), SEQ ID NO: 10 (protein) MGKQEDAELVIIPFPFSGHILATIELAKRLISQDNPRIHTITILYWGLPFIPQADTIAFLRSLVKNEPRIRLVTLPEVQDPPPMELFVEFAESYILEYVKKMVPIIREALSTLLSSRDESGSVRVAGLVLDFFCVPMIDVGNEFNLPSYIFLTCSAGFLGMMKYLPERHREIKSEFNRSFNEELNLIPGYVNSVPTKVLPSGLFMKETYEPWVELAERFPEAKGILVNSYTALEPNGFKYFDRCPDNYPTIYPIGPILNLENKKDDAKTDEIMRWLNEQPESSVVFLCFGSMGSFNEKQVKEIAVAIERSGHRFLWSLRRPTPKEKIEFPKEYENLEEVLPEGFLKRTSSIGKVIGWAPQMAVLSHPSVGGFVSHCGWNSTLESMWCGVPMAAWPLYAEQTLNAFLLVVELGLAAEIRMDYRTDTKAGYDGGMEVTVEEIEDGIRKLMSDGEIRNKVKDVKEKSRAAVVEGGSSYASIGKFIEHVSNVTI	68.9	95.2	85.3	76.4	3
